Data reported in paper PMC1894825, “Transcriptional Regulation of Multi-Drug Tolerance and Antibiotic-Induced Responses by the Histone-Like Protein Lsr2 in M. tuberculosis” (PLoS Pathogens, 2007).

Target: the molecule itself
Experiment: cross-linking

B1: recombinant Lsr2 (M. tuberculosis, Rv3597c) (natural protein)
chain: not shown
notes: also called rLsr2; not shown: His6, N-terminal, kept
binding result: binds
